Measured values: doi:10.1101/2021.03.29.435803

Target: HA-FBXW7 (UniProt Q8VBV4)
Assay: FLAG IP, HA immunoblot
Details: reference: wild type

binding against the reference (sites T243,S247)	binding against the reference (sites T171,S175)	Substance
weaker	–	KLF2 (from UniProt Q60843) 2A C (T243A/S247A)
–	weaker	KLF2 (from UniProt Q60843) 2A N (T171A/S175A)
